Measured values taken from the supplement of paper PMC6757056.
± gives the standard deviation of the averaged measurements.

B1: library; a variant is named by its letters at N, in order (parent)
chain: GCUGUCACCGGUGUAUUACCCUAGUGGUCGACCGGUCUGAUGAGUCUNNNNNNAGACGAAACAGC

Assays:
hypoxanthine [1] = variants of: B1; assay: FACS-Seq fitted mean relative fluorescence mCherry/BFP without ligand (log10 relative fluorescence); ligand: hypoxanthine (xanthine aptamer); higher = higher reporter protein expression; conditions: HEK293T, ligand present: no
How it was run: (§1)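 With or without ligand for 48 h, enriched HEK293T libraries carrying a lentiviral ribozyme-switch mCherry reporter and EF1α-BFP were sorted into 6 mCherry/BFP bins. Bin genomic DNA was amplified by PCR, barcoded and sequenced on MiSeq. Fluorescence was taken from normal fits to the resulting bin counts. Each fitted mean of log10(mCherry/BFP) was scaled to five spiked-in control ribozymes.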

hypoxanthine [2] = variants of: B1; assay: normalized RNA/DNA level with ligand (relative to sTRSVctl = 100) (log10 (% of sTRSVctl)); ligand: hypoxanthine (xanthine aptamer); higher = less ribozyme self-cleavage, higher mRNA level; conditions: ligand concentration (+) RNA-Seq: 5 mM, HEK293T, reporter: mCherry (pCS4076), ligand present: yes
Experimental: (§2)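 Hammerhead (sTRSV) ribozyme switch libraries with a ligand aptamer grafted on stem I and a randomized N4-6 loop II, cloned into the 3' UTR of mCherry and transiently transfected into HEK293T cells; RNA-Seq 72 h post transfection with ligand added 1 h before transfection; RNA read count / plasmid DNA read count normalized to the non-cleaving sTRSVctl (x100), log10; sequences with >100 DNA reads. FACS-Seq: lentiviral library sorted into 6 bins after 48 h ligand, log-normal fit mean of mCherry/BFP scaled to controls. Printed sequences are partial switch sequences.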

hypoxanthine [3] = variants of: B1; assay: normalized RNA/DNA level without ligand (relative to sTRSVctl = 100) (log10 (% of sTRSVctl)); ligand: hypoxanthine (xanthine aptamer); higher = less ribozyme self-cleavage, higher mRNA level; conditions: HEK293T, reporter: mCherry (pCS4076), ligand present: no
Experimental: as §2

hypoxanthine [4] = variants of: B1; assay: FACS-Seq fitted mean relative fluorescence mCherry/BFP with ligand (log10 relative fluorescence); ligand: hypoxanthine (xanthine aptamer); ligand concentration (+) FACS-Seq: 5 mM; higher = higher reporter protein expression; conditions: HEK293T, ligand present: yes
How it was run: as §1

Row | Variant | FACS-Seq fitted mean (log10) (hypoxanthine [1]) | normalized RNA/DNA level with ligand (log10) (hypoxanthine [2]) | normalized RNA/DNA level without ligand (log10) (hypoxanthine [3]) | FACS-Seq fitted mean (log10) (hypoxanthine [4])
1 | GCAGAG | 0.09517 ± 0.00035 | 1.78 ± 0.031 | 1.35 ± 0.051 | 0.558 ± 0.037
2 | UAUUCA | 0.158 ± 0.15 | 1.942 ± 0.0084 | 1.925 ± 0.0052 | 0.144 ± 0.082
3 | GCAAAU | -0.00409 ± 0.019 | 1.932 ± 0.0088 | 1.75 ± 0.043 | 0.371 ± 0.013
4 | GCCUGA | 0.389 ± 0.04 | 1.99 ± 0.022 | 1.81 ± 0.038 | 0.6019 ± 0.0038
5 | CGAGUC | 0.0141 ± 0.11 | 1.958 ± 0.016 | 1.91 ± 0.094 | 0.106 ± 0.053
6 | GAUGCG | 0.0728 ± 0.0046 | 1.87 ± 0.038 | 1.498 ± 0.0066 | 0.5658 ± 0.0024
7 | GUCGAG | 0.248 ± 0.065 | 1.81 ± 0.062 | 1.41 ± 0.072 | 0.65 ± 0.073
8 | CAGUGG | 0.315 ± 0.042 | 1.9 ± 0.024 | 1.32 ± 0.043 | 0.629 ± 0.11
9 | UUGAGA | 0.452 ± 0.082 | 1.96 ± 0.015 | 1.53 ± 0.067 | 0.649 ± 0.057
10 | AACUAA | 0.536 ± 0.12 | 1.937 ± 0.014 | 1.81 ± 0.035 | 0.663 ± 0.043
11 | AAGUAG | -0.0595 ± 0.042 | 1.593 ± 0.013 | 1.1 ± 0.048 | 0.568 ± 0.023
12 | GUUGAG | 0.255 ± 0.018 | 1.81 ± 0.019 | 1.34 ± 0.038 | 0.659 ± 0.082
13 | UUAGAA | 0.092 ± 0.0099 | 1.89 ± 0.043 | 1.694 ± 0.0073 | 0.285 ± 0.021
14 | AAUACA | 0.346 ± 0.053 | 1.88 ± 0.05 | 1.801 ± 0.0096 | 0.496 ± 0.0044
15 | CCGGAA | 0.279 ± 0.013 | 1.91 ± 0.027 | 1.71 ± 0.044 | 0.1512 ± 0.00072
16 | ACGCAU | 0.3211 ± 0.00042 | 1.79 ± 0.021 | 1.42 ± 0.032 | 0.534 ± 0.042
17 | GCUUGG | -0.174 ± 0.029 | 1.83 ± 0.036 | 1.374 ± 0.0045 | 0.326 ± 0.038
18 | AAUUCG | 0.321 ± 0.022 | 1.9 ± 0.041 | 1.52 ± 0.043 | 0.729 ± 0.034
19 | GCAGUC | 0.791 ± 0.051 | 1.94 ± 0.047 | 1.71 ± 0.047 | 0.764 ± 0.064
20 | GGUUGG | -0.0305 ± 0.021 | 1.83 ± 0.074 | 1.27 ± 0.014 | 0.558 ± 0.021
21 | AGAGGU | 0.557 ± 0.061 | 1.9 ± 0.035 | 1.52 ± 0.032 | 0.802 ± 0.07
22 | UACGAU | 0.105 ± 0.066 | 1.92 ± 0.041 | 1.715 ± 0.015 | -0.543 ± 0.12
23 | UACGAG | 0.145 ± 0.0054 | 1.88 ± 0.069 | 1.4 ± 0.058 | 0.382 ± 0.014
24 | UAUACU | 0.344 ± 0.0075 | 1.93 ± 0.05 | 1.84 ± 0.065 | 0.343 ± 0.066

Row | Variant | FACS-Seq fitted mean (log10) (hypoxanthine [1]) | normalized RNA/DNA level with ligand (log10) (hypoxanthine [2]) | normalized RNA/DNA level without ligand (log10) (hypoxanthine [3]) | FACS-Seq fitted mean (log10) (hypoxanthine [4])
25 | UACUAA | 0.00308 ± 0.026 | 1.91 ± 0.023 | 1.8 ± 0.025 | 0.206 ± 0.073
26 | CCGAAG | -0.0351 ± 0.034 | 1.719 ± 0.0075 | 1.2 ± 0.14 | 0.496 ± 0.027
27 | ACAGGA | 0.278 ± 0.028 | 1.905 ± 0.013 | 1.66 ± 0.043 | 0.473 ± 0.069
28 | GCACAA | 0.663 ± 0.02 | 1.86 ± 0.046 | 1.75 ± 0.019 | 0.678 ± 0.026
29 | UAAAAA | 0.315 ± 0.015 | 1.905 ± 0.019 | 1.784 ± 0.00081 | 0.22 ± 0.0062
30 | GAGAGG | 0.00193 ± 0.027 | 1.45 ± 0.017 | 1.01 ± 0.1 | 0.644 ± 0.032
31 | CGGGUA | 0.436 ± 0.033 | 1.94 ± 0.044 | 1.82 ± 0.068 | 0.64 ± 0.015
32 | GCCGGU | 0.478 ± 0.08 | 1.957 ± 0.01 | 1.982 ± 0.01 | 0.744 ± 0.043
33 | AUAGUG | 0.213 ± 0.046 | 1.82 ± 0.041 | 1.362 ± 0.012 | 0.348 ± 0.12
34 | GGUGUA | 0.31 ± 0.061 | 1.91 ± 0.027 | 1.765 ± 0.0096 | 0.381 ± 0.023
35 | AUGCGA | 0.0429 ± 0.015 | 1.89 ± 0.076 | 1.556 ± 0.0057 | 0.395 ± 0.06
36 | UUACCG | -0.405 ± 0.057 | 1.899 ± 0.011 | 1.75 ± 0.052 | -0.0713 ± 0.036
37 | GGACGA | 0.478 ± 0.053 | 1.904 ± 0.015 | 1.64 ± 0.031 | 0.693 ± 0.025
38 | UGUGAC | 0.481 ± 0.0063 | 1.94 ± 0.022 | 1.839 ± 0.0072 | 0.42 ± 0.077
39 | UGCGUA | 0.287 ± 0.015 | 1.92 ± 0.05 | 1.86 ± 0.032 | 0.413 ± 0.031
40 | UCGAAA | 0.163 ± 0.02 | 1.86 ± 0.052 | 1.4 ± 0.051 | 0.395 ± 0.045
41 | GCGAUU | -0.0877 ± 0.0032 | 1.88 ± 0.06 | 1.65 ± 0.026 | 0.166 ± 0.016
42 | GUCCAG | 0.3111 ± 0.00085 | 1.863 ± 0.015 | 1.48 ± 0.054 | 0.723 ± 0.0074
43 | AUGAAA | 0.631 ± 0.058 | 1.87 ± 0.021 | 1.7 ± 0.033 | 0.625 ± 0.011
44 | AACUGU | 0.343 ± 0.028 | 1.89 ± 0.027 | 1.72 ± 0.014 | 0.538 ± 0.014
45 | CCCACA | 0.706 ± 0.022 | 1.99 ± 0.086 | 1.862 ± 0.0068 | 0.739 ± 0.032
46 | AAAAGU | 0.21 ± 0.0047 | 1.854 ± 0.011 | 1.55 ± 0.032 | 0.339 ± 0.09
47 | AAAGAA | 0.0245 ± 0.07 | 1.9 ± 0.028 | 1.715 ± 0.0039 | 0.207 ± 0.017
48 | CACCAC | 0.232 ± 0.012 | 1.92 ± 0.056 | 1.81 ± 0.063 | 0.406 ± 0.036

Row | Variant | FACS-Seq fitted mean (log10) (hypoxanthine [1]) | normalized RNA/DNA level with ligand (log10) (hypoxanthine [2]) | normalized RNA/DNA level without ligand (log10) (hypoxanthine [3]) | FACS-Seq fitted mean (log10) (hypoxanthine [4])
49 | CGUUUC | 0.944 ± 0.041 | 1.95 ± 0.058 | 1.908 ± 0.0084 | 0.812 ± 0.15
50 | GCGGGU | 0.731 ± 0.07 | 1.97 ± 0.048 | 1.83 ± 0.016 | 0.735 ± 0.05
51 | AAUCCG | 0.134 ± 0.0095 | 1.86 ± 0.073 | 1.423 ± 0.0043 | 0.584 ± 0.0084
52 | UCAGUU | -0.0872 ± 0.018 | 1.96 ± 0.046 | 1.87 ± 0.04 | 0.0688 ± 0.016
53 | CAUGAA | 0.0197 ± 0.067 | 1.87 ± 0.026 | 1.68 ± 0.022 | 0.341 ± 0.056
54 | UGCAGG | 0.297 ± 0.033 | 1.8726 ± 0.0012 | 1.39 ± 0.073 | 0.49 ± 0.056
55 | GCCGAG | 0.182 ± 0.0042 | 1.856 ± 0.013 | 1.39 ± 0.019 | 0.5906 ± 0.0027
56 | ACGGUA | 0.318 ± 0.0024 | 1.85 ± 0.056 | 1.57 ± 0.064 | 0.5989 ± 0.004
57 | GGAUCG | 0.142 ± 0.037 | 1.95 ± 0.053 | 1.6404 ± 0.0014 | 0.517 ± 0.05
58 | UAGUCA | 0.551 ± 0.061 | 1.944 ± 0.0025 | 1.853 ± 0.006 | 0.647 ± 0.03
59 | AGGGAA | 0.524 ± 0.1 | 1.86 ± 0.025 | 1.68 ± 0.045 | 0.684 ± 0.034
60 | UAACAA | -0.143 ± 0.032 | 1.9154 ± 0.0012 | 1.7546 ± 0.00028 | -0.012 ± 0.012
61 | GGGGAG | -0.274 ± 0.0067 | 1.812 ± 0.0043 | 1.46 ± 0.013 | -0.0598 ± 0.036
62 | AAGUGA | -0.0239 ± 0.018 | 1.81 ± 0.02 | 1.47 ± 0.019 | 0.0676 ± 0.035
63 | GUAUGA | 0.0955 ± 0.069 | 1.89 ± 0.049 | 1.64 ± 0.012 | 0.000695 ± 0.097
64 | GAUUGG | -0.303 ± 0.024 | 1.794 ± 0.017 | 1.29 ± 0.047 | 0.393 ± 0.017
65 | AGAAAC | 0.541 ± 0.013 | 1.93 ± 0.055 | 1.796 ± 0.01 | 0.58 ± 0.023
66 | AGAAAA | 0.559 ± 0.023 | 1.89 ± 0.023 | 1.78 ± 0.048 | 0.133 ± 0.027
67 | AUGCUA | 0.499 ± 0.086 | 1.966 ± 0.0068 | 1.788 ± 0.0045 | 0.706 ± 0.029
68 | GUGUGG | 0.0226 ± 0.011 | 1.807 ± 0.0054 | 1.27 ± 0.025 | 0.5793 ± 0.0024
69 | GAGCAC | 0.773 ± 0.029 | 1.89 ± 0.037 | 1.71 ± 0.05 | 0.682 ± 0.074
70 | UGAGAA | 0.552 ± 0.021 | 1.86 ± 0.019 | 1.74 ± 0.018 | 0.638 ± 0.083
71 | AUAAUU | 0.751 ± 0.0089 | 1.92 ± 0.046 | 1.83 ± 0.061 | 0.619 ± 0.013
